Assays:
[1] = molecular target: human Hepatocyte Growth Factor (HGF) (human) (UniProt P14210); assay: competition with ^3H-Hinge for soluble HGF
[2] = molecular target: human Hepatocyte Growth Factor (HGF) (human) (UniProt P14210); assay: competition with ^3H-Hinge for soluble HGF (1.25 ng), Bio-Gel P6 spin columns, scintillation counting
[3] = molecular target: Hepatocyte Growth Factor (HGF), species not stated (Homo sapiens (Human)) (UniProt P14210); assay: ^3H Dihexa incubated with different concentrations of HGF, Biogel P6 columns, scintillation counting
Chain of Hepatocyte Growth Factor (HGF), species not stated (Homo sapiens (Human)) (P14210 32-494 limits assumed, form in doubt, chain 1 of 2): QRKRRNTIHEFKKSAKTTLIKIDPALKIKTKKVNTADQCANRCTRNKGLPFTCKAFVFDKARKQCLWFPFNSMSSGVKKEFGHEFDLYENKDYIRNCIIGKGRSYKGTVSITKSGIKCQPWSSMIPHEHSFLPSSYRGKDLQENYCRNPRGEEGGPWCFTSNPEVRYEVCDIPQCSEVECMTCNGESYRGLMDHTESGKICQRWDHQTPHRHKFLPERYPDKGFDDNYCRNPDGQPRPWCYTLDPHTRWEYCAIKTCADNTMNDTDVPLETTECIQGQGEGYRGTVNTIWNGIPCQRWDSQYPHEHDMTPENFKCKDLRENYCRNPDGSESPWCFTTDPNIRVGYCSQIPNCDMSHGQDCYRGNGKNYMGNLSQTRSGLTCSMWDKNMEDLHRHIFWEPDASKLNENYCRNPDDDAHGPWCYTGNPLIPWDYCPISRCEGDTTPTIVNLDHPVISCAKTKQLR
Chain of Hepatocyte Growth Factor (HGF), species not stated (Homo sapiens (Human)) (P14210 495-728 limits assumed, form in doubt, chain 2 of 2): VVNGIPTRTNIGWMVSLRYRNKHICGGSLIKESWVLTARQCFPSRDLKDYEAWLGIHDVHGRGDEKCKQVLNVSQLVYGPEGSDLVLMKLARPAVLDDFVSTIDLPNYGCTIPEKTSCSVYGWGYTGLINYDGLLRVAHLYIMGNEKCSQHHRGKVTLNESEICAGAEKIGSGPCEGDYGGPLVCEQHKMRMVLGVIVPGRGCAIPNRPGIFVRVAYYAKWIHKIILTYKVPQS

[4] = molecular target: Hepatocyte Growth Factor (HGF), species not stated (Homo sapiens (Human)) (UniProt P14210); assay: ^3H Dihexa binding to HGF (FIG. 43), repeated in the text

Chain of human Hepatocyte Growth Factor (HGF) (human) (P14210 32-728 limits assumed): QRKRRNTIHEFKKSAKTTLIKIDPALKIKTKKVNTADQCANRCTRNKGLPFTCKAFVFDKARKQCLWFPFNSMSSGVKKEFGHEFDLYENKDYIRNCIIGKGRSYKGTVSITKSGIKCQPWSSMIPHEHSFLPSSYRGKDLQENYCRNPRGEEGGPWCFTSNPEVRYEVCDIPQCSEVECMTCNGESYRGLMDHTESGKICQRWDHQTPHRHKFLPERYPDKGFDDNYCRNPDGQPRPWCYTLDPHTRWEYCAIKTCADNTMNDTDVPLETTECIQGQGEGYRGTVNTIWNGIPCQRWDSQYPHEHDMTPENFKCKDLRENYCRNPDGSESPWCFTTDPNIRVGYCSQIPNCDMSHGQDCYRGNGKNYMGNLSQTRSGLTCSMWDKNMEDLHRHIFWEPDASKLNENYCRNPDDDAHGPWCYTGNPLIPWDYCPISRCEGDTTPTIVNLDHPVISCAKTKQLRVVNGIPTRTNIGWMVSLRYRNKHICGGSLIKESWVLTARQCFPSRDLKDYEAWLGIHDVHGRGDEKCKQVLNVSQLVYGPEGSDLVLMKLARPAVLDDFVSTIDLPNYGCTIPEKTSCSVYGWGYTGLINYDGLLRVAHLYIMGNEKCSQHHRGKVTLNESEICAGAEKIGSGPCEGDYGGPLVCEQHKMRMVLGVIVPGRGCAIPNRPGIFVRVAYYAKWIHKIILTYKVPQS

## D-Nle-Cys-Ile-NH-(CH2)5-CONH2 (peptide)
[1]
  Ki: 0.133 nM
[2]
  Ki: 0.133 nM

## D-Nle-Met-Ile-NH-(CH2)5-CONH2 (peptide)
[1]
  Ki: 137 nM
[2]
  Ki: 138 nM

## D-Nle-Trp-Ile-NH-(CH2)5-CONH2 (peptide)
[2]
  Ki: 3.37 nM

## Dihexa (N-hexanoic-Tyr-Ile-(6)-aminohexanoic amide) (peptide)
[3]
  Kd: 0.000221 nM
[4]
  Kd: 0.00022 nM

From patent publication US20140051633A1
